Source: US20090269840A1 (UCB, published 2009)
Each block holds one binder with its values, some of them ahead of it.

Columns and labels:
[1] = target: T1, 7 Ig-domain human KDR fused to human Fc (human, UniProt P35968 20-764); assay: BIAcore, KDR-Fc captured on anti-Fc chip, fragment passed over
T1 construct: domain: 7 Ig-domain; also called human 7-domain KDR-Fc; KDR-Fc; not shown: human Fc
Description: (§1) 7 Ig-domain human KDR fused to human Fc was captured on a chip coated with anti-Fc, and the various fragments of the CDR grafted antibody g165 and the murine parent antibody VR165 were passed over permitting affinity determination. The table below summarises the results obtained. In this assay format, there is an advantage of divalency as shown by the lower off rates (Kd) of the divalent species. The affinity of the grafted DFM is very similar to the murine IgG, with the DFM-PEG showing a minor reduction of affinity.

[2] = target: T1, 7 Ig-domain human KDR fused to human Fc; assay: radioimmunoassay: 7 Ig-domain KDR-human Fc captured by polyclonal anti-Fc on a microtitre plate, fragment added, then 125-I labeled VEGF-165 as the blocked ligand
Method: The ability of the fragments to block VEGF binding to KDR was measured in a radioimmunoassay.

[3] = target: T1, 7 Ig-domain human KDR fused to human Fc; assay: BIAcore, KDR-Fc captured on anti-Fc chip, antibody passed over
Description: as §1

T1 sequence (P35968 20-764 limits assumed): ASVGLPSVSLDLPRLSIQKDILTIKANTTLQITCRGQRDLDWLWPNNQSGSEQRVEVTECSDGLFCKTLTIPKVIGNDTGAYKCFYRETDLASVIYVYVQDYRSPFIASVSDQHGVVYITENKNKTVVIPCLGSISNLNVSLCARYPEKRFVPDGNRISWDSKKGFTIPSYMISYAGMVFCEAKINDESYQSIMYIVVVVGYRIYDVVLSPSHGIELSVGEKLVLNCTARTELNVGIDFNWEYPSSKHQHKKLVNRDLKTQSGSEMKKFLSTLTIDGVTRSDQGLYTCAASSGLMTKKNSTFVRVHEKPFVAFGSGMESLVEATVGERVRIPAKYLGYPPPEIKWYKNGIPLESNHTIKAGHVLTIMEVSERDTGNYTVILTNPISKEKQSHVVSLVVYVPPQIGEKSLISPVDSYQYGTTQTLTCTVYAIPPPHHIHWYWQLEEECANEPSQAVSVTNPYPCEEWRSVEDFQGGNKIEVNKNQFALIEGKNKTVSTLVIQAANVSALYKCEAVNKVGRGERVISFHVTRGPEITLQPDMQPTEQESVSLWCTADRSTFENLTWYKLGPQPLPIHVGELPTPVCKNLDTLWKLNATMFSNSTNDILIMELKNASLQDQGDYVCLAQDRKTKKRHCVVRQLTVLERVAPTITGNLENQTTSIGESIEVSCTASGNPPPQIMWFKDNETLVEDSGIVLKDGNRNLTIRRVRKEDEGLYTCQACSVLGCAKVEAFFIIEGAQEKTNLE

- Kd [1]: 1.07 nM
B2: g165 FAB-PEG40 (PEGylated modified Fab of g165) (Fab, V domains shown)
VH: EVQLVESGGGLVQPGGSLRLSCAASGFTFSSYGMSWVRQAPGKGLEWVATITSGGSYTYYVDSVKGRFTISRDNAKNTLYLQMNSLRAEDTAVYYCVRIGEDALDYWGQGTLVTVSS
VL: DIQMTQSPSSLSASVGDRVTITCRASQDIAGSLNWLQQKPGKAIKRLIYATSSLDSGVPKRFSGSRSGSDYTLTISSLQPEDFATYYCLQYGSFPPTFGQGTKVEIKR
modifications: single cysteine of the truncated hinge linked to (mPEG)-lysyl maleimide (two mPEG of about 20,000 Da, about 40,000 Da in all)
notes: no limits stated

- Kd [3]: 0.03 nM
B5: mouse monoclonal antibody VR165 (antibody, mouse IgG2a, V domains shown)
VH: EVQLVESGGDLVKPGGSLKLSCAASGFTFSSYGMSWVRQTPDKRLQWVATITSGGSYTYYPDTVKGRFTISRDNAENTLYLQMSSLKSEDTAMYYCVRIGEDALDYWGQGTSVTVSS
VL: DIQMTQSPSSLSASLGERVSLTCRASQDIAGSLNWLRQEPDGTIKRLIYATSSLDSGVPKRFSGSRSGSDYSLTISSLESEDFVDYYCLQYGSFPPTFGGGSKLEIKR
notes: also called mIgG; murine IgG

The remaining lines, values behind:

B1: g165 modified Fab (Fab') fragment, CDP791 (Fab, V domains shown)
VH: B2 VH
VL: B2 VL
notes: g165 = gL3gH3; no limits stated; also called CDP791 Fab
- Kd [1]: 0.91 nM
- IC50 (read off the curve) [2]: ~0.2 µg/mL

B3: g165 DFM-PEG40 (PEGylated di-(modified Fab) of g165) (other)
light: DIQMTQSPSSLSASVGDRVTITCRASQDIAGSLNWLQQKPGKAIKRLIYATSSLDSGVPKRFSGSRSGSDYTLTISSLQPEDFATYYCLQYGSFPPTFGQGTKVEIKRTVAAPSVFIFPPSDEQLKSGTASVVCLLNNFYPREAKVQWKVDNALQSGNSQESVTEQDSKDSTYSLSSTLTLSKADYEKHKVYACEVTHQGLSSPVTKSFNRGEC
heavy: EVQLVESGGGLVQPGGSLRLSCAASGFTFSSYGMSWVRQAPGKGLEWVATITSGGSYTYYVDSVKGRFTISRDNAKNTLYLQMNSLRAEDTAVYYCVRIGEDALDYWGQGTLVTVSSASTKGPSVFPLAPSSKSTSGGTAALGCLVKDYFPEPVTVSWNSGALTSGVHTFPAVLQSSGLYSLSSVVTVPSSLGTQTYICNVNHKPSNTKVDKKVEPKSCDKTHTCAA
modifications: hinge cysteine linked to (mPEG)-lysyl bis-maleimide (PEG about 40 kDa)
notes: no limits stated
- Kd [1]: 0.041 nM
- IC50 (read off the curve) [2]: ~0.05 µg/mL

B4: g165 DFM (di-(modified Fab) of the CDR-grafted antibody g165, naked) (other)
light: B3 light
heavy: B3 heavy
modifications: hinge cysteine cross-linked to the second Fab' (linker of the naked DFM not described)
notes: also called grafted DFM; naked DFM
- Kd [1]: 0.029 nM
